These results are taken from publication PMC8479475.

In assay [1] the target is Labeled bovine β-cardiac heavy meromyosin (HMM) carrying EDANS- and dabcyl-labeled regulatory light chain (bovine) (UniProt P85100). Description: FRET or BRET; time-resolved FRET between EDANS- and dabcyl-labeled RLC (1:3) on the two heads of one HMM dimer; head-head interaction within the molecule (interacting-heads motif), not between HMM molecules; in solution, no cross-linker.

For assay [2] the target is unchanged. In words: FRET or BRET + cross-linking; time-resolved FRET as in a2 after cross-linking: 5 μM HMM in 10 mM MOPS, 30 mM KCl, 2 mM MgATP, 1 mM DTT, pH 7.5, 0.1% glutaraldehyde for 1 min, quenched with 100 mM Tris pH 7.5; head-head interaction within the molecule.
For assay [3] the target is unchanged. In words: FRET or BRET; time-resolved FRET as in a2 with mavacamten (dose-response) and 2 mM magnesium ATP, incubated 10 min; 5 μM labeled HMM; head-head interaction within the molecule.

In assay [1], “Labeled bovine β-cardiac heavy meromyosin (HMM) carrying EDANS- and dabcyl-labeled regulatory light chain (from UniProt P85100 1-199; Q3SZE5 1-166) (complex)” registered a percent of molecules in the interacting-heads motif (head-head interaction within the dimer) of 43%. In addition, the fraction participating in FRET after glutaraldehyde (head-head interaction within the dimer) in assay [2] amounted to 74%. The substance further came in with an increase in the population participating in FRET with mavacamten (head-head interaction within the dimer) in assay [3] of 4%.
